Results taken from patent US20240254233A1 (IMMUNEONCIA THERAPEUTICS, published 2024).

Key:
[1] = target: T1, recombinant human PD-L1 (human, UniProt Q9NZQ7 19-238, limits assumed); assay: ELISA, recombinant human PD-L1 coated at 75 ng/well, anti-human IgG Fcγ-HRP detection
T1 construct: also called single ligand (PD-L1)

[2] = target: T2, recombinant human CD47 (human, UniProt Q08722 19-139, limits assumed); assay: ELISA, recombinant human CD47 coated at 50 ng/well, anti-human IgG Fcγ-HRP detection
T2 construct: also called single ligand (CD47)

[3] = target: T3, recombinant human CD47-fc (human, UniProt Q08722 19-139, limits assumed); assay: dual-ligand (bridging) ELISA: CD47-fc coated, antibody titrated, then PD-L1-his at 50 ng/well, anti-his-HRP detection
T3 construct: Coated at 50 ng/well in the dual-ligand ELISA
T3 sequence (Q08722 19-139 limits assumed): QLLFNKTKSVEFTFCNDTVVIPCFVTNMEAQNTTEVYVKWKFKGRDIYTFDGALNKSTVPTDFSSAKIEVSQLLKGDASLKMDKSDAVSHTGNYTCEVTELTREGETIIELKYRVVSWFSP

T1 sequence (Q9NZQ7 19-238 limits assumed): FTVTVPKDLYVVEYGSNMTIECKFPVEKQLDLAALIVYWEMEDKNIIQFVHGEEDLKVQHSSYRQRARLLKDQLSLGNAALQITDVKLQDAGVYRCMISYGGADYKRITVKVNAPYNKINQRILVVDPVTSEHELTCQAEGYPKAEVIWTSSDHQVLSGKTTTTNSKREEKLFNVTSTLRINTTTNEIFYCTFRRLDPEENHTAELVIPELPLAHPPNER
T2 sequence (Q08722 19-139 limits assumed): as the sequence (Q08722 19-139 limits assumed) above

EC50 [1] [ng/mL] | EC50 [2] [ng/mL] | EC50 [3] [µg/mL] | Binder
0.989 |  |  | IMC-001 (antibody, V domains shown) VH: QMQLVQSGAEVKKPGSSVKVSCKASGGTFSSYAYSWVRQAPGQGLEWMGGIIPSFGTANYAQKFQGRVTITADESTSTAYMELSSLRSEDTAVYYCARGPIVATITPLDYWGQGTLVTVSS VL: SYVLTQPPSVSVAPGKTATIACGGENIGRKTVHWYQQKPGQAPVLVIYYDSDRPSGIPERFSGSNSGNTATLTISRVEAGDEADYYCLVWDSSSDHRIFGGGTKLTVL
7.24 | 4.09 | 0.0174 | IMC-201 (bispecific antibody, human IgG1, lambda, also called Ab 1159.1) heavy: not shown light: QSALTQPASVSGSPGQSISISCTGTSSDVGGHNYVSWYQQHPGKAPKLMIYDVRNRPSGVSNRFSGSKSGSTASLTISGLQTEDEADYYCNSYTGSRTYVFGSGTKLTVLGQPKAAPSVTLFPPSSEELQANKATLVCLISDFYPGAVTVAWKADSSPVKAGVETTTPSKQSNNKYAASSYLSLTPEQWKSHRSYSCQVTHEGSTVEKTVAPTECS
 | 2.77 |  | IMC-002 (antibody, V domains shown) VH: QVQLVQSGAEVKKPGASVKVSCKASGYTFTSYYMHWVRQAPGQGLEWMGIINPSGGSTSYAQKFQGRVTMTRDTSTSTVYMELSSLRSEDTAVYYCARSTLWVSEFDYWGQGTLVTVSS VL: QSALTQPASVSGSPGQSISISCTGTSSDVGGHNYVSWYQQHPGKAPKLMIYDVRNRPSGVSNRFSGSKSGSTASLTISGLQTEDEADYYCNSYTGSRTYVFGSGTKLTVLG
